Measurements reported in US9809653B2, “Anti-LAMP1 antibodies and antibody drug conjugates, and uses thereof” (SANOFI, priority 2012, dated 2017).

Tests used:
Assay type in all cases: binding
[1] = molecular target: T1, human LAMP1 expressed transiently at the cell surface of HEK293 (Homo sapiens, UniProt P11279); test: FACS on HEK293 cells transiently transfected with human LAMP1; settings: transient HEK293
T1 construct: expressed in transfected cells; host or cells: HEK293 (Invitrogen K9000-10), transient transfection
T1 sequence (P11279 29-417): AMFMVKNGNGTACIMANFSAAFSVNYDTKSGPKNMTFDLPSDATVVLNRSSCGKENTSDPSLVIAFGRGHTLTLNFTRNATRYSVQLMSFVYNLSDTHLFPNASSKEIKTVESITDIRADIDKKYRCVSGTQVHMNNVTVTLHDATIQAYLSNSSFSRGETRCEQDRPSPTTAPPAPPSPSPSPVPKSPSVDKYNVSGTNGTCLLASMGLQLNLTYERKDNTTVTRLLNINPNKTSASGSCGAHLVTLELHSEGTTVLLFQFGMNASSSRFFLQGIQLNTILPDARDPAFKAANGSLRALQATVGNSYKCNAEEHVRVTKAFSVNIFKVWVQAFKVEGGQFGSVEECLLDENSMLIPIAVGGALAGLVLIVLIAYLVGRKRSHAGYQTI
Description: LAMP1 Coding DNA Sequence, RefSeq NM_005561.3 (SEQ ID NO: 23) was cloned internally. The CDS of Macaca mulatta LAMP1, RefSeq XP_001087801 (SEQ ID NO: 27) was also cloned internally. The predicted sequences of mature LAMP1 from Macaca mulatta and Macaca fascicularis are identical to 99%, said sequence differing by one additional Leucin at position 11 of Macaca mulatta (SEQ ID NO: 27), i.e. in the signal peptide. The mature LAMP1 proteins of Macaca mulatta and Macaca fascicularis are identical. Therefore the secreted LAMP1 used in the following example is referred to cynomolgus monkey. Both CDS were cloned into mammalian expression plasmids under CMV enhancer/promoter and SV40 polyA signals. HEK293 cells (Invitrogen; #K9000-10.) were transiently transfected with human LAMP1 or cynomolgus LAMP1 plasmids using FreeStyle™ MAX 293 Expression System according to the manufacturer's instructions. […] 100 μL/well of goat anti-mouse IgG conjugated with Alexa647 (Invitrogen; #A2135) was added for 45 min at 4° C. and washed three times with PBS 1% BSA. The antibody binding was evaluated after centrifugation and resuspension of cells by adding 200 μl/well PBS 1% BSA and read using Guava® easyCyte™ 8HT Flow Cytometry System. EC50 values were estimated using BIOST@T-SPEED software.

[2] = molecular target: T2, Alascan LAMP1 transmembrane proteins (hLAMP1_ΔGYQTI mutants) (Homo sapiens, UniProt P11279, I149A); test: Ala scan of LAMP1 transmembrane proteins, flow cytometry; settings: pXL6070, I149A in hLAMP1_ΔGYQTI; loss = decrease of more than 50% of the mean fluorescence
T2 construct: expressed in transfected cells; host or cells: HEK293 (293-F), transient transfection
T2 sequence (P11279 with tags, fused parts or gaps I149A): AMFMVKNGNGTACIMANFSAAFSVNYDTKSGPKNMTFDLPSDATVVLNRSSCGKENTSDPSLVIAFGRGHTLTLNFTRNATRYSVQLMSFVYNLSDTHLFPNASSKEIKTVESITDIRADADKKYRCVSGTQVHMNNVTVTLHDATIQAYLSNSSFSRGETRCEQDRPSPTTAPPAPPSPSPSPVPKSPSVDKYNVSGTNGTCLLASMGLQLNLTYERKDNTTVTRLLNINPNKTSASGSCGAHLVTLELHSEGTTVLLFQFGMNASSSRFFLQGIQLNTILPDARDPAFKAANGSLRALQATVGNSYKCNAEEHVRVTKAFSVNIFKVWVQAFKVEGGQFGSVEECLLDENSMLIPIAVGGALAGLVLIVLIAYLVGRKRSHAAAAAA
Description: (§1) Individual residues identified in example 6.5 and not involved in β-strand structure have been individually replaced by an alanine residue in the LAMP1 sequence derived from hLAMP1_ΔGYQTI and encoded in plasmid pXL5626 (example 6.4). A total of 21 plasmids were engineered from pXL5626 (see Table 19) and used to assay LAMP1 expression at the cell membrane of HEK293 cells after transient transfection. Two days post transfection cells were processed, analyzed by flow cytometry (Guava® easyCyte™ 8HT) as mentioned in example 4.7, and the mean fluorescence was recorded. This fluorescence represents a semi-quantitative assessment of binding. Loss of binding is reported on Table 19 when there is a decrease of more than 50% of the mean fluorescence compared to the control protein encoded from pXL5626.

[3] = molecular target: T3, Alascan LAMP1 transmembrane proteins (hLAMP1_ΔGYQTI mutants) (Homo sapiens, UniProt P11279, D150A); test: as above; settings: pXL6085, D150A in hLAMP1_ΔGYQTI; loss = decrease of more than 50% of the mean fluorescence
T3 construct: expressed in transfected cells; host or cells: HEK293 (293-F), transient transfection
T3 sequence (P11279 with tags, fused parts or gaps D150A): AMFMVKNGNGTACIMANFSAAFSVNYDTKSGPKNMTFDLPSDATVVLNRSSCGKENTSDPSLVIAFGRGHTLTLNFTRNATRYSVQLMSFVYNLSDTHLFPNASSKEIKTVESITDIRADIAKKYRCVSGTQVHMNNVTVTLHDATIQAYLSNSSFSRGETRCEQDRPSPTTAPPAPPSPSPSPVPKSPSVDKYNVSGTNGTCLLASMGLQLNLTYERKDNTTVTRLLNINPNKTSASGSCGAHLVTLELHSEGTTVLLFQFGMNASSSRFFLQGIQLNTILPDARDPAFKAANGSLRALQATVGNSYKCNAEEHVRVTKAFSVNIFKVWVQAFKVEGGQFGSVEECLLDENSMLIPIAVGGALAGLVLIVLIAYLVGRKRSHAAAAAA
Description: as §1

[4] = molecular target: T4, Alascan LAMP1 transmembrane proteins (hLAMP1_ΔGYQTI mutants) (Homo sapiens, UniProt P11279, R186A); test: as above; settings: pXL6081, R186A in hLAMP1_ΔGYQTI; loss = decrease of more than 50% of the mean fluorescence
T4 construct: expressed in transfected cells; host or cells: HEK293 (293-F), transient transfection
T4 sequence (P11279 with tags, fused parts or gaps R186A): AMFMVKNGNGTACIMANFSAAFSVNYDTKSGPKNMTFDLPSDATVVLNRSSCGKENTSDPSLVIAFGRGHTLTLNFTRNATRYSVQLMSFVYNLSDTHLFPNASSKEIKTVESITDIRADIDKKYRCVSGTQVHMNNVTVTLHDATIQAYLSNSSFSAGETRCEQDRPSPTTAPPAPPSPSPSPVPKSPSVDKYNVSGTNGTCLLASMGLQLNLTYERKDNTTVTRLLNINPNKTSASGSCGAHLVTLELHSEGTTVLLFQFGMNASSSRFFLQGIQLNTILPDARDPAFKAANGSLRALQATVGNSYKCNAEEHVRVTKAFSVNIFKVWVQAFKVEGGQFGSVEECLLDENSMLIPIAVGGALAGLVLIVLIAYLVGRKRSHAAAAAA
Description: as §1

EC50 [1]: 0.014 µM
Binding to mAb, Alascan [2]: Binding loss
Binding to mAb, Alascan [3]: Binding loss
Binding to mAb, Alascan [4]: Binding loss
B1: MAb1: murine monoclonal anti-LAMP1 antibody, VH SEQ ID NO: 1, VL SEQ ID NO: 5 (antibody, V domains shown)
VH: QVQLQQSGAELVKPGASVKMSCKASGYIFTNYNIHWVKKSPGQGLEWIGAIYPGNGDAPYSQKFKDKATLTADKSSSTTYMQLSRLTSEDSAVYYCVRANWDVAFAYWGQGTLVSVSA
VL: DIQMTQSPPSLSASLGGKVTITCKASQDIDRYMAWYQDKPGKGPRLLIHDTSTLQPGIPSRFSGSGSGRDYSFSISNLEPEDIATYYCLQYDNLWTFGGGTKLEIK
modifications: Antibody Fragment; antibody fragment
